# Measurements taken from IntAct's records for PubMed 7536190.
# B1: Tumor necrosis factor receptor superfamily member 6 (Mus musculus), P25446 (parent)
# chain: MLWIWAVLPLVLAGSQLRVHTQGTNSISESLKLRRRVRETDKNCSEGLYQGGPFCCQPCQPGKKKVEDCKMNGGTPTCAPCTEGKEYMDKNHYADKCRRCTLCDEEHGLEVETNCTLTQNTKCKCKPDFYCDSPGCEHCVRCASCEHGTLEPCTATSNTNCRKQSPRNRLWLLTILVLLIPLVFIYRKYRKRKCWKRRQDDPESRTSSRETIPMNASNLSLSKYIPRIAEDMTIQEAKKFARENNIKEGKIDEIMHDSIQDTAEQKVQLLLCWYQSHGKSDAYQDLIKGLKKAECRRTLDKFQDMVQKDLGKSTPDTGNENEGQCLE
# Variants of: B1
# Conditions: with fadd_human FADD
row,effect of a mutation on the interaction,Variant
1,decreasing interaction,MLWIWAVLPLVLAGSQLRVHTQGTNSISESLKLRRRVRETDKNCSEGLYQGGPFCCQPCQPGKKKVEDCKMNGGTPTCAPCTEGKEYMDKNHYADKCRRCTLCDEEHGLEVETNCTLTQNTKCKCKPDFYCDSPGCEHCVRCASCEHGTLEPCTATSNTNCRKQSPRNRLWLLTILVLLIPLVFIYRKYRKRKCWKRRQDDPESRTSSRETIPMNASNLSLSKYDPRIAEDMTIQEAKKFARENNIKEGKIDEIMHDSIQDTAEQKVQLLLCWYQSHGKSDAYQDLIKGLKKAECRRTLDKFQDMVQKDLGKSTPDTGNENEGQCLE [I225D]

# Variants of: B1
# Conditions: with tnr6_human FAS
row,effect of a mutation on the interaction,Variant
1,decreasing interaction,MLWIWAVLPLVLAGSQLRVHTQGTNSISESLKLRRRVRETDKNCSEGLYQGGPFCCQPCQPGKKKVEDCKMNGGTPTCAPCTEGKEYMDKNHYADKCRRCTLCDEEHGLEVETNCTLTQNTKCKCKPDFYCDSPGCEHCVRCASCEHGTLEPCTATSNTNCRKQSPRNRLWLLTILVLLIPLVFIYRKYRKRKCWKRRQDDPESRTSSRETIPMNASNLSLSKYDPRIAEDMTIQEAKKFARENNIKEGKIDEIMHDSIQDTAEQKVQLLLCWYQSHGKSDAYQDLIKGLKKAECRRTLDKFQDMVQKDLGKSTPDTGNENEGQCLE [I225D]
